The values that follow come from patent US20150125904A1, “PROBE INCORPORATION MEDIATED BY ENZYMES” (Massachusetts Institute of Technology, priority 2012, published 2015).

The target of series [1] is biotinylated LAP-mCherry fusion protein. Briefly: gel shift on SDS-PAGE of HEK cell lysate incubated with 5 µM streptavidin, in-gel mCherry fluorescence.
For series [2], the system named is O=C(O)CCCNC(=O)c1cc2cc(F)c(O)c(F)c2oc1=O. Briefly: purified protein, by the assay type. Particulars: other: ligation to LAP, 2 μM ligase, 600 μM LAP; pH 7.2.

Turning to “streptavidin protein (from UniProt P22629 37-163)”, the percent of LAP-mCherry shifted up to ~80 kD in series [1] was found to be 21%. For “E20G/W37TLplA (Escherichia coli K-12; E21G/W38T)”, in series [2], the Km stood at 17.5 ± 4.3 µM and the kcat was 0.014 ± 0.001 s⁻¹.
